The values below are quoted from earlier work in article PMC4264850.

In the data set the target is EGFR (Homo sapiens) (UniProt P00533).

matuzumab: the Kd is 0.34 nM.

In general, Kd refers to the equilibrium constant for the complex coming apart.
